The labels stand for the following.
T1: RBMS1 linker mutant Q135E/Q138E (Homo sapiens, UniProt P29558 58-224, Q135E)
T1 sequence: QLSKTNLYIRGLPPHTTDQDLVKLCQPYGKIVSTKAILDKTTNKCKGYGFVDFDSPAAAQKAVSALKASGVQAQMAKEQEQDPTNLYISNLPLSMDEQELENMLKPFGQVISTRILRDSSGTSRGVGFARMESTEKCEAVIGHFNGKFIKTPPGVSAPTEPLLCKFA

T2: RBMS1 (58-224) Q138E (Homo sapiens, UniProt P29558 62-223, Q138E)
T2 sequence: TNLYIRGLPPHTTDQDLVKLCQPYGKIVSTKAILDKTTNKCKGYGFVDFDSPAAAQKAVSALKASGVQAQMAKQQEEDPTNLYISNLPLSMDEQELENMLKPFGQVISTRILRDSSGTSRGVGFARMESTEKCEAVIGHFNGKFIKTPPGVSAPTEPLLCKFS

T3: RBMS1 (58-224) F107L (Homo sapiens, UniProt P29558 62-223, F107L)
T3 sequence: T2 sequence with F46L, E77Q

T4: RBMS1 (58-224) (Homo sapiens, UniProt P29558 62-223)
T4 sequence: T2 sequence with E77Q

T5: RBMS1 (58-224) F185V (Homo sapiens, UniProt P29558 62-223, F185V)
T5 sequence: T2 sequence with E77Q, F124V

T6: RBMS1 (58-224) Y105S (Homo sapiens, UniProt P29558 62-223, Y105S)
T6 sequence: T2 sequence with Y44S, E77Q

T7: RBMS1 RRM1 (Homo sapiens, UniProt P29558 58-137)
T7 sequence: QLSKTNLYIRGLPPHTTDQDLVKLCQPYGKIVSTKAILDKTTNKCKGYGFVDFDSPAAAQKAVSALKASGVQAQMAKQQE

T8: RBMS1 (58-224) (Homo sapiens) (UniProt P29558)
T8 sequence: T1 sequence with E78Q

T9: RBMS1 RRM2 (Homo sapiens, UniProt P29558 138-224)
T9 sequence: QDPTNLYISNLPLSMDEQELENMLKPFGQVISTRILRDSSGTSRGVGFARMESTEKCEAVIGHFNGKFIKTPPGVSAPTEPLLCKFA

T10: RBMS1 (58-224) (Homo sapiens, UniProt P29558 58-224)
T10 sequence: T1 sequence with E78Q

This is an account of results in article PMC8191779, “Hinge like domain motion facilitates human RBMS1 protein binding to proto-oncogene c-myc promoter”.

Positions count from the first letter of the chain named. Names and notes keep the numbering of the source.

One data set addresses T1, RBMS1 linker mutant Q135E/Q138E. Put plainly: ITC; ITC: 20 mM sodium phosphate pH 7.1, 50 mM NaCl, 303 K, 0.1 mM protein in cell, 1-1.5 mM DNA in syringe; NMR: 20 mM sodium phosphate pH 7.1, 100 mM NaCl, 5% D2O. The settings on record: protein: recombinant; tags: 6xHis removed by TEV; single strand.
Consider TCTTATT (ssDNA) [c-myc consensus TCTTATT], for which the binding signal was 10 fold lower binding than wild type.

A further data set addresses T2, RBMS1 (58-224) Q138E. Put plainly: ITC; 20 mM sodium phosphate pH 7.1, 50 mM NaCl, 303 K (30 C); 0.1 mM protein in cell, 1-1.5 mM DNA in syringe. As to conditions: protein: recombinant; tags: N-term GAMG left after TEV cleavage of 6xHis. (In general: In ITC the heat of successive injections is recorded.)
TGGTATT (ssDNA): the Kd was found to be 17.6 µM.

On to TGGTTTT (ssDNA), for which the Kd was 18.1 µM. For the molecule TCTTATT (ssDNA), the Kd was 13.9 µM.

The target of a further data set is T3, RBMS1 (58-224) F107L. Described as above. As to conditions: protein: recombinant; tags: N-term GAMG left after TEV cleavage of 6xHis.
Regarding TGGTATT (ssDNA), the dissociation constant (Kd) is 182 µM. The same measure, in the same setting: then TGGTTTT (ssDNA), with 83.3 µM; and TCTTATT (ssDNA), with 142 µM.

In another data set the target is T4, RBMS1 (58-224). The data set is described as above. As to conditions: protein: recombinant; tags: N-term GAMG left after TEV cleavage of 6xHis.
Take TCCCATT (ssDNA): the Kd was 8.2 µM.

With TGGTGTT (ssDNA), the Kd was determined as 16.1 µM.

TGGTCAT (ssDNA): the Kd was determined as 17.5 µM. With TCTTATG (ssDNA), the Kd was determined as 19.3 µM.

As for TGGAATT (ssDNA), the Kd was 21 µM. Still for that read-out and setting: then TGGTATT (ssDNA), with 6.7 µM; and TGGTTTT (ssDNA), with 4.04 µM; and GTTAT (ssDNA), with 81.3 µM. Same read-out and setting: the result for TGGTATC (ssDNA) reads 6.2 µM. In the case of TTAT (ssDNA), the binding result is listed as “no binding”. TGGGATT (ssDNA): the Kd came out at 36.4 µM.

Regarding TCGTATT (ssDNA), the Kd was determined as 7.7 µM.

Turning to GTAT (ssDNA), the binding result is “no binding”. For TCATATT (ssDNA), the equilibrium dissociation constant (Kd) was 11.9 µM. As to CTTTA (ssDNA), the Kd came to 55.5 µM.

With TCTTATT (ssDNA), the Kd came out at 3.84 µM. Still for that read-out and setting: the result for TATAATT (ssDNA) reads 37 µM. Still for that read-out and setting: then TGGTAAT (ssDNA), with 9.6 µM.

As for ATAT (ssDNA), the binding result is reported as “no binding”. Regarding TGTTATT (ssDNA), the Kd stood at 15.2 µM. Turning to GGTAAT (ssDNA), the Kd was determined as 14.9 µM.

Regarding TTTTT (ssDNA), the equilibrium dissociation constant (Kd) came to 79.4 µM. Consider TGGTACT (ssDNA), for which the Kd came to 15.9 µM.

In the case of TGCTATT (ssDNA), the Kd was 8.69 µM. Regarding TCGGATG (ssDNA), the dissociation constant Kd is 35.5 µM.

In the next data set the target is T5, RBMS1 (58-224) F185V. Described as above. The settings on record: protein: recombinant; tags: N-term GAMG left after TEV cleavage of 6xHis.
Take TGGTATT (ssDNA): the Kd was 23.2 µM. Same read-out and setting: then TGGTTTT (ssDNA), with 22 µM; and TCTTATT (ssDNA), with 6.02 µM.

The target in another data set is T6, RBMS1 (58-224) Y105S. The description is as above. As to conditions: protein: recombinant; tags: N-term GAMG left after TEV cleavage of 6xHis.
For TGGTATT (ssDNA), the Kd was determined as 151 µM. Same read-out and setting: then TGGTTTT (ssDNA), with 418 µM.

With TCTTATT (ssDNA), the binding result is given as “no binding”.

The next data set has as its target T7, RBMS1 RRM1. Nature of the data set: ITC; ITC: 20 mM sodium phosphate pH 7.1, 50 mM NaCl, 303 K, 0.1 mM protein in cell, 1-1.5 mM DNA in syringe; NMR: 20 mM sodium phosphate pH 7.1, 100 mM NaCl, 5% D2O. The settings on record: protein: recombinant; tags: 6xHis removed by TEV; single strand.
Turning to TGGTATT (ssDNA), the binding signal was 10 fold lower affinity than RBMS1 58-224.

For the next data set, the target named is T8, RBMS1 (58-224) (Homo sapiens). Put plainly: ITC. As to conditions: ITC: 20 mM sodium phosphate pH 7.1, 50 mM NaCl, 303 K, 0.1 mM protein in cell, 1-1.5 mM DNA in syringe; NMR: 20 mM sodium phosphate pH 7.1, 100 mM NaCl, 5% D2O.
The molecule c-myc 21 bp promoter sequence returned a dissociation constant (Kd) of 2.6 µM.

For another data set, the target named is T9, RBMS1 RRM2. Nature of the data set: ITC; ITC: 20 mM sodium phosphate pH 7.1, 50 mM NaCl, 303 K, 0.1 mM protein in cell, 1-1.5 mM DNA in syringe; NMR: 20 mM sodium phosphate pH 7.1, 100 mM NaCl, 5% D2O. As to conditions: protein: recombinant; tags: 6xHis removed by TEV; single strand.
On to TGGTATT (ssDNA), for which the binding result is reported as “no binding”. On the same count and under the same terms, the result for TGGTTTT (ssDNA) reads “no binding”.

The target of another data set is T7, RBMS1 RRM1. The description is as above. The settings on record: protein: recombinant; tags: 6xHis removed by TEV; single strand. The source holds these as a separate data set.
As to TCTTATT (ssDNA) [c-myc consensus TCTTATT], the Kd is 55.2 µM.

The next data set addresses T10, RBMS1 (58-224). Described as above. As to conditions: protein: recombinant; tags: N-term GAMG left after TEV cleavage of 6xHis; single strand.
Consider TGTTATT (ssDNA) [TGTTATT (C2G)], for which the Kd came to 15.2 µM. The same measure, in the same setting: then TCTTATT (ssDNA) [c-myc consensus TCTTATT], with 3.84 µM.

For orientation: Kd means the free concentration of one partner at which half of the binding sites on the other are occupied at equilibrium, for simple one-to-one binding.
